Legend:
human OX40 on cells [1] = molecular target: T1, human OX40 on cells (human, UniProt P43489 29-277); experiment: cell-based or functional assay
T1 sequence: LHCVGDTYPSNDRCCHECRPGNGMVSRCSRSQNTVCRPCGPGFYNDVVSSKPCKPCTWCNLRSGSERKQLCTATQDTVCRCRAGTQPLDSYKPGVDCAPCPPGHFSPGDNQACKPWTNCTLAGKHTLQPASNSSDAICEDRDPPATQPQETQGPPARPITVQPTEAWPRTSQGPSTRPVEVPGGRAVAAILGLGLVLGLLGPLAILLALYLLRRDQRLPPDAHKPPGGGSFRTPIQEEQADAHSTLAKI

[2] = molecular target: T2, cynomolgus OX40 on activated cynomolgus PBMC (cynomolgus, UniProt P43489 29-214 (human entry)); experiment: flow cytometry, activated cynomolgus CD4 T cells
T2 construct: whole, on cells
T2 chain: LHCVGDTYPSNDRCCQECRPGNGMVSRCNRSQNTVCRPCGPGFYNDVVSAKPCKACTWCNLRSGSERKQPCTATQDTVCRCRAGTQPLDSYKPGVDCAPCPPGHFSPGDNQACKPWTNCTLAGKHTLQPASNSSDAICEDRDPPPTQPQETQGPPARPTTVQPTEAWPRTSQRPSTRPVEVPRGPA
Protocol: Centrifugation was performed at 520×g, without brake at room temperature for 30 minutes. Adjacent centrifugation at 150×g at room temperature for 15 minutes was performed to reduce platelets count followed by several centrifugation steps with 400×g at room temperature for 10 minutes to wash PBMC with sterile DPBS.
Then, plates were washed four times with 200 μL/well 4° C. FACS buffer. […] Plates where washed twice with 200 μL/well 4° C.

[3] = molecular target: recombinant cynomolgus OX40 Fc(kih) (cynomolgus, UniProt P0DOX5 223-449 = IgG part, biotin on C-terminal Avi tag where used biotinylated); experiment: SPR avidity format, antigen on SA chip
Protocol: All SPR experiments were performed on a Biacore T200 at 25° C. with HBS-EP as running buffer (0.01 M HEPES pH 7.4, 0.15 M NaCl, 3 mM EDTA, 0.005% Surfactant P20, Biacore, Freiburg/Germany).
Immobilization levels up to 800 resonance units (RU) were used.

[4] = molecular target: T3, recombinant human OX40 His (human); experiment: SPR, captured IgG, OX40 His analyte
T3 construct: ectodomain with avi and hexahistidine tag; also called human Ox40 avi His
T3 chain: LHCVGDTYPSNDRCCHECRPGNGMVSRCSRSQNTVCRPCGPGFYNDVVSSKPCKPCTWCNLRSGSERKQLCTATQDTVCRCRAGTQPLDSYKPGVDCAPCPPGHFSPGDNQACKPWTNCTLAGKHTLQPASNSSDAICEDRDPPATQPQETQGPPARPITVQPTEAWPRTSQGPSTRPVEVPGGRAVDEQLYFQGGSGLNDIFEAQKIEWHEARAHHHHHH

[5] = molecular target: T4, human fibroblast activation protein (huFAP) on cells (human, UniProt Q12884 1-760); experiment: flow cytometry, NIH/3T3-huFAP clone 39 cells
T4 construct: also called NIH/3T3-huFAP clone 39; NIH/3T3-huFAP clone 19

human OX40 on cells [6] = molecular target: T1, human OX40 on cells; experiment: cell-based or functional assay; remark: listed apart in the source

EC50 of rescuing suboptimal TCR stimulation with plate-immobilized anti-OX40 binder (preactivated human CD4 T cells) (human OX40 on cells [1]): 0.697 nM
EC50 [2]: 48.2 nM
binding result [3]: binds
Kd [4]: 250 nM
koff [4]: 0.57 s⁻¹
kon [4]: 2.3e+06 M⁻¹ s⁻¹
binding result [5]: no binding
EC50 of NFκB activation in HeLa_hOx40_NFκB_luc1 reporter cells with secondary anti-human IgG Fcγ antibody (human OX40 on cells [6]): 3.59 nM
B1: 1G4 P329GLALA IgG1 (antibody, V domains shown)
VH: QVQLVQSGAEVKKPGSSVKVSCKASGGTFSSYAISWVRQAPGQGLEWMGGIIPIFGTANYAQKFQGRVTITADKSTSTAYMELSSLRSEDTAVYYCAREYGSMDYWGQGTTVTVSS
VL: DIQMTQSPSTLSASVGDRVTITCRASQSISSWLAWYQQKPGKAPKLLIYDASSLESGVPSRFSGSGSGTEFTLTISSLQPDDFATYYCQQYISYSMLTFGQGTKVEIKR
notes: anti-OX40

Reference: patent publication US20220073646A1 (Hoffmann-La Roche, published 2022)
